Results reported in patent publication US20030200558A1 (MONSANTO, published 2003).

B1: β-conglycinin β subunit mutant 39335-66 (other)
chain: MDYKDDDDKLKVREDENNPFYLRSSNSFQTLFENQNGRIRLIQRFNKRSPQLENLRDYRIVQFQSKPNTIILPHHADADFIIIILSGRAILTLVNNDDRDSYNIHPGDAQRIPAGTTYYIINPHDHQNLKIIKIAIPVNKPGRYDDFFLSSTQAQQSYLQGFSHNILETSFHSEFEEINRVLLGEEEEQRQQEGVIVELSKEQIRQLSRRAKSSSRKTISSEDEPFNLRSRNPIYSNNFGKIFEITPEKTPQLRDLDIFLSSVDINEGALLLPHFNSKAIVILVINEGDANIELVGIKEQQQKQKQEEEPLEVQRYRAELSEDDVFVIPAAYPFVVNATSNLNFLAFGINAENNQRNFLAGEKDNVVRQIERQVQELAFPGSAQDVERLLKKQRESYIVDAQPQQKEEGSKGRKGPFPSILGALY
B2: β-conglycinin β subunit mutant 39335-71 (other)
chain: MDYKDDDDKLKVREDENNPFYLRSSNSFQTLFENQNGRIRLIQRFNKRSPQIENLRDYRIVQFQSKPNTIILPHHADADFIIIILSGRAILTLVNNDDRDSYNIHPGDAQRIPAGTTYYIINPHDHQNLKIIKIAIPVNKPGRYDDFFLSSTQAQQSYLQGFSHNILETSFHSEFEEINRVLLGEEEEQRQQEGVIVELSKEQIRQLSRRAKSSSRKTISSEDEPFNLRSRNPIYSNNFGKFFEITPEKTPQIRDLDIFLSSVDINEGALLLPHFNSKAIVILVINEGDANIELVGIKEQQQKQKQEEEPLEVQRYRAELSEDDIIVIPAAYPFVVNATSNLNIIAIGINAENNQRNFLAGEKDNVVRQIERQVQELAFPGSAQDVERLLKKQRESYFVDAQPQQKEEGSKGRKGPFPSILGALY
B3: β-conglycinin β subunit mutant 39335-3 (other)
chain: MDYKDDDDKLKVREDENIPFYLRSSNSFQTLFENQNGRIRLIQRFNKRSPQLENLRDYIIVQFQSKPNTILLPIHADADFLLFVLSGRAILTLVNNDDRDSYNLHPGDAQRIPAGTTYYLVNPHDHQNLKIIKLAIIVNKPGRYDDFFLSSTQAQQSYLQGFSHNILETSFHSEFEEINRVLLGEEEEQRQQEGIIVELSKEQIRQLSRRAKSSSRKTISSEDEPFNLRSRNIIYSNNFGKFFEITPEKTPQLRDLDIFLSSVDINEGALLLPHFNSKAIVILVIIEGDANIELVGIKEQQQKQKQEEEPLEVQRYRAELSEDDVFVIPAAYPFVVNATSNLNFLAFGINAENNQRNFLAGEKDNVVRQIERQVQELAFPGSAQDVERLLKKQRESYFVDAQPQQKEEGSKGRKGPFPSILGALY
B4: β-conglycinin β subunit mutant 39335-57 (other)
chain: MDYKDDDDKLKVREDENNPFYLRSSNSFQTLFENQNGRIRLIQRFNKRSPQLENLRDYRIVQIQSKPNTIILPHHADADFIIIILSGRAIITIVNNDDRDSYNIHPGDAIRIPAGTTYYIINPHDHQNLKIIKIAIPVNKPGRYDDFFLSSTQAQQSYLQGFSHNILETSFHSEFEEINRVLLGEEEEQRQQEGVIVELSKEQIRQLSRRAKSSSRKTISSEDEPFNLRSRNPIYSNNFGKFFEITPEKTPQLRDLDIFISSVDINEGALLLPHFNSKAIVILVINEGDANIEIVGIKEQQQKQKQEEEPLEVQRYRAELSEDDIFVIPAAYPFVINATSNLNFIAFGINAENNQRNFLAGEKDNVVRQIERQVQELAFPGSAQDVERLLKKQRESYFVDAQPQQKEEGSKGRKGPFPSILGALY
B5: β-conglycinin β subunit mutant 39335-70 (other)
chain: MDYKDDDDKLKVREDENNPFYLRSSNSFQTLFENQNGRIRLIQRFNKRSPQIENLRDYRIVQFQSKPNTIILPHHADADFIIIILSGRAIITIVNNDDRDSYNIHPGDAQRIPAGTTYYIINPHDHQNLKIIKIAIPVNKPGRYDDFFLSSTQAQQSYLQGFSHNILETSFHSEFEEINRVLLGEEEEQRQQEGVIVELSKEQIRQLSRRAKSSSRKTISSEDEPFNLRSRNPIYSNNFGKFFEITPEKTPQIRDLDIFLSSVDINEGALLLPHFNSKAIVILVINEGDANIELVGIKEQQQKQKQEEEPLEVQRYRAELSEDDIIVIPAAYPFVVNATSNLNIIAIGINAENNQRNFLAGEKDNVVRQIERQVQELAFPGSAQDVERLLKKQRESYFVDAQPQQKEEGSKGRKGPFPSILGALY
B6: β-conglycinin β subunit mutant 39335-64 (other)
chain: MDYKDDDDKLKVREDENNPFYLRSSNSFQTLFENQNGRIRLIQRFNKRSPQLENLRDYRIVQIQSKPNTIILPHHADADFIIIILSGRAIITIVNNDDRDSYNIHPGDAIRIPAGTTYYIINPHDHQNLKIIKIAIPVNKPGRYDDFFLSSTQAQQSYLQGFSHNILETSFHSEFEEINRVLLGEEEEQRQQEGVIVELSKEQIRQLSRRAKSSSRKTISSEDEPFNLRSRNPIYSNNFGKFFEITPEKTPQLRDLDIFISSVDINEGALIIPHFNSKAIVILVINEGDANIEIVGIKEQQQKQKQEEEPLEVQRYRAELSEDDIIVIPAAYPFVINATSNLNFLAFGINAENNQRNFLAGEKDNVVRQIERQVQELAFPGSAQDVERLLKKQRESYFVDAQPQQKEEGSKGRKGPFPSILGALY
B7: β-conglycinin β subunit mutant 39335-74 (other)
chain: MDYKDDDDKLKVREDENNPFYLRSSNSFQTLFENQNGRIRLIQRFNKRSPQLENLRDYRIVQFQSKPNTIILPHHADADFIIIILSGRAILTLVNNDDRDSYNIHPGDAQRIPAGTTYYIINPHDHQNLKIIKIAIPVNKPGRYDDFFLSSTQAQQSYLQGFSHNILETSFHSEFEEINRVLLGEEEEQRQQEGVIVELSKEQIRQLSRRAKSSSRKTISSEDEPFNLRSRNPIYSNNFGKFFEITPEKTPQLRDLDIFLSSVDINEGALLLPHFNSKAIVILVINEGDANIELVGIKEQQQKQKQEEEPLEVQRYRAELSEDDVFVIPAAYPFVVNATSNLNFLAFGINAENNQRNFLAGEKDNVVRQIERQVQELAFPGSAQDVERLLKKQRESYIVDAQPQQKEEGSKGRKGPFPSILGALY
B8: β-conglycinin β subunit mutant 39335-1 (other)
chain: MDYKDDDDKLKVREDENNPFYLRSSNSFQTLFENQNGRIRLIQRFNKRSPQLENLRDYRIVQFQSKPNTIILPHHADADFLLFVLSGRAILTLVNNDDRDSYILHPGDAQRIPAGTTYYLVNPHDHQNLKIIILAIPVNKPGRYDDFFLSSTQAQQSYLQGFSHNILETSFHSEFEEINRVLLGEEEEQRQQEGIIVELSKEQIRQLSRRAKSSSRKTISSEDEPFNLRSRNPIYSNNFGKIFEITPEKIIQLRDLDIFLSSVDINEGALLLPHFNSKAIVIIIINEGDANIEIVGIKEQQQKQKQEEEILEVQRYRAELSEDDVFVIPAAYPIVVNATSNINFLAFGINAENIQRNFLAGEKDNVVRQIERQVQELAFPGSAQDVERLLKKQRESYIVDAQPQQKEEGSKGRKGPFPSILGALY
B9: β-conglycinin β subunit mutant 39335-2 (other)
chain: MDYKDDDDKLKVREDENNPFYLRSSNSFQTLFENQNGRIRLIQRFNKRSPQLENLRDYIIVQFQSKPNTIILPHHADADFILFVLSGRAILTLVNNDDRDSYILHPGDAQRIPAGTTYYLVNPHDHQNLKIIILAIPVNKPGRYDDFFLSSTQAQQSYLQGFSHNILETSFHSEFEEINRVLLGEEEEQRQQEGIIVELSKEQIRQLSRRAKSSSRKTISSEDEPFNLRSRNPIYSNNFGKFFEITPEKIIQLRDLDIFLSSVDINEGALLLPHFNSKAIVILVINEGDANIELVGIKEQQQKQKQEEEPLEVQRYRAELSEDDVFVIPAAYPIVVNATSNINFLAFGINAENIQRNFLAGEKDNVVRQIERQVQELAFPGSAQDVERLLKKQRESYIVDAQPQQKEEGSKGRKGPFPSILGALY

Target: the molecule itself
Experiment: sucrose gradient sedimentation, anti-FLAG western (self-assembly)

Binding result, no binding:
B1, B2, B3, B4, B5, B6, B7, B8, B9
